Positions count from the first letter of the chain named. Numbers in names are those of the source.
T1: Fc-tagged CD122 (extracellular domain) (human, UniProt P14784 27-240)
T1 construct: extracellular domain; Captured on an anti-human Fc chip; also called Fc tagged hCD122; not shown: Fc tag
T1 sequence (looked up): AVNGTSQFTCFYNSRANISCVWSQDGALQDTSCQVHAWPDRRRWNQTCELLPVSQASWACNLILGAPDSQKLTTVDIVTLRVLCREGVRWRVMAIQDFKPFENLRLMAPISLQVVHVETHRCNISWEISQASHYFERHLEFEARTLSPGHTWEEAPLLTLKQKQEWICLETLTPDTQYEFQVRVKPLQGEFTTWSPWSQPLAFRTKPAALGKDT

T2: Mouse IL-2 (mouse, UniProt P04351 21-169)
T2 construct: Soluble analyte in SPR; also called mIL-2
T2 sequence (looked up): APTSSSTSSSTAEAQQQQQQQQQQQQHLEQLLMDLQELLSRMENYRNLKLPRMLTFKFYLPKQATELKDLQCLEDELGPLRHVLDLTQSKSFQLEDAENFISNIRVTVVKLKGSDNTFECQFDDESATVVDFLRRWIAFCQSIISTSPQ

B1: human CD25 (soluble) (receptor, UniProt P01589 22-213, looked up)
chain: ELCDDDPPEIPHATFKAMAYKEGTMLNCECKRGFRRIKSGSLYMLCTGNSSHSSWDNQCQCTSSATRNTTKQVTPQPEEQKERKTTEMQSPMQPVDQASLPGHCREPPPWENEATERIYHFVVGQMVYYQCVQGYRALHRGPAESVCKMTHGKTRWTQPQLICTGEMETSQFPGEEKPQASPEGRPESETSC
notes: Injected as soluble analyte at 1000 nM / 1 uM; also called hCD25; IL-2Rα
B2: biotinylated human CD25 (receptor, UniProt P01589 22-213, looked up)
chain: B1 chain
modifications: biotinylated
notes: Captured on a streptavidin-coated chip; also called biotinylated hCD25
B3: BDG17.023 IgG (antibody, V domains shown)
VH: EIQLQQSGPELRRPGSSVKLSCKASGYNITDYLIHWVRHRPEHGLEWIGWIDPEDGETRYAQKFQSKATLTADTSSNAAYMQLSSLTPEDTATYFCARQLDSTYIYPFAYWGQGTLVTVSS
VL: DIVMTQSPFSLAVSEGEMVTINCKSSQSLLRSGNQKNYLAWYQQKPGQSPKLLIYYASTGQSGVPDRFIGSGSGTDFTLTISDVQAEDLADYYCLQHYITPPTFGAGTKLELK
notes: Human chimeric IgG1 with rat Fv
B4: BDG JES6.1RMC (17.006) (antibody, V domains shown)
VH: B3 VH with Q99S
VL: B3 VL with R31S, T100S
notes: Rat Fv with a mouse IgG2a constant region
B5: BDG17.066 (antibody, human IgG1, kappa, L234A L235A, V domains shown)
VH: QVQLVQSGAEVKKPGSSVKVSCKASGYSITDSLIHWVRQAPGQGLEWMGWIDPEDGEINYAQKFQGRVTLTADTSTSTAYMELSSLRSEDTAVYYCARSLDSYPIDPFAYWGQGTLVTVSS
VL: DIVMTQSPDSLAVSLGERATINCKSSQSLLRNGNQQNYLAWYQQKPGQPPKLLIYYASTGQSGVPDRFSGSGSGTDFTLTISSLQAEDVAVYYCQQHYVTPPTFGAGTKVEIKR
notes: Humanized IgG1 with the LALA mutation (L234A, L235A)
B6: BDG17.053 (antibody, V domains shown)
VH: B5 VH with S32Y, I58T, S102Y, Y103D, D106Y
VL: DIVMTQSPDSLAVSLGERATINCKSSQSLLRNGNQKNYLAWYQQKPGQPPKLLIYYASTGQSGVPDRFSGSGSGTDFTLTISSLQAEDVAVYYCQQHYITPPTFGAGTKVEIK
notes: Humanized IgG1
B7: BDG17.067 (antibody, human IgG1, kappa, L234A L235A, V domains shown)
VH: B5 VH with S32Y, E57V, I58T, N59A, S102Y, Y103D, D106Y
VL: B5 VL with Q36K
notes: Humanized IgG1 with the LALA mutation; also called BDG17.0067
B8: BDG17.054 (antibody, V domains shown)
VH: B5 VH with S32D, I58T, Y103T, P104W, D106Y
VL: B6 VL with N32R, Y38H, Y56D, Q95L, H97S
notes: Humanized IgG1 without the LALA mutation
B9: BDG17.038 (antibody, V domains shown)
VH: B5 VH
VL: B6 VL with K36Q, I99V
notes: Humanized IgG1
B10: BDG17.043 (antibody, V domains shown)
VH: B5 VH with S32Y, E57V, I58T, N59A, S102Y, Y103D, D106Y
VL: B6 VL with I99V
notes: Humanized IgG1; also called BDG017.043

Assays:
[1] = biological target: T3, BDG17.054/hIL-2 complex (human, UniProt P60568 21-153); assay: SPR, antibody captured on CM5 chip and loaded with hIL-2; 1000 nM CD25 injected before CD122 (first set) and after CD122 (second set)
T3 construct: Captured humanized IgG1 saturated with 50 nM hIL-2 on the SPR chip; also called humanized IgG-hIL-2 complex
Description: (§1) Subsequently, running buffer was injected for 60 seconds to reach a steady baseline, and then 1000 nM of CD122 was injected for 30 seconds at a flow rate of 30 ul/min. To test CD122 binding, the same experiment was repeated in reverse order, with CD122 injected first flowed by injection of CD25.

[2] = biological target: T4, BDG17.069 (AU-007)/hIL-2 complex (human, UniProt P60568 21-153); assay: SPR, AU-007 captured on CM5 chip and loaded with 10nM hIL-2; 1000nM hCD25 injected before hCD122 (1st set) and after hCD122 (2nd set)
T4 construct: On the SPR chip: captured AU-007 saturated with 50 nM hIL-2; In the HEK reporter assay: hIL-2 titrated in the presence of 200 nM AU-007; also called IL2+AU-007; A/IL-2

[3] = biological target: T5, BDG17.043/hIL-2 complex (human, UniProt P60568 21-153); assay: SPR, antibody captured on CM5 chip and loaded with 50 nM hIL-2; 1000 nM CD25 injected before CD122
T5 construct: Captured humanized IgG1 saturated with 50 nM hIL-2 on the SPR chip; also called humanized IgG-hIL-2 complex

[4] = biological target: T1, Fc-tagged CD122 (extracellular domain); assay: SPR, Fc tagged hCD122 captured on a CM5 chip, soluble hCD25 injected
Description: Affinity and epitope binding site was assessed using Surface Plasmon Resonance (SPR). […] […] […] Diagrams represent SPR sensorgram traces of complex formation of IL-2R/Cytokine.

[5] = biological target: T6, BDG17.038/hIL-2 complex (human, UniProt P60568 21-153); assay: SPR, antibody captured on CM5 chip and loaded with 50 nM hIL-2; 1000 nM CD25 injected before CD122
T6 construct: Captured humanized IgG1 saturated with 50 nM hIL-2 on the SPR chip; also called humanized IgG-hIL-2 complex
Description: as §1

[6] = biological target: B2; assay: SPR, biotinylated hCD25 on the chip, soluble hCD25 injected as a control
[7] = biological target: T7, BDG17.053/hIL-2 complex (human, UniProt P60568 21-153); assay: SPR, captured antibody saturated with hIL-2, CD25 injected
T7 construct: Captured humanized IgG1 saturated with 50 nM hIL-2 on the SPR chip; also called humanized IgG-hIL-2 complex

[8] = biological target: T8, BDG17.023-hIL-2 complex (human, UniProt P60568 21-153); assay: SPR, BDG17.023 on CM5 chip saturated with 50 nM hIL-2; 1000 nM CD25 injected after CD122
T8 construct: Non-covalent complex made on the SPR chip: immobilized BDG17.023 IgG1 saturated with 50 nM hIL-2; also called BDG17.023-IL-2 complex

[9] = biological target: T9, Non-alpha-IL-2 (naIL-2, hIL-2/hCD25 conjugate) (human, UniProt P01589 22-240; P60568 21-153); assay: SPR, biotinylated hCD25 on the chip, naIL-2 injected
T9 construct: Expressed in Expi293 cells; also called IL-2-CD25 conjugate; hIL-2/CD25 conjugated cytokine

[10] = biological target: T10, Human IL-2 (human, UniProt P60568 21-153); assay: SPR Biacore T200, antibody captured, hIL-2 analyte
T10 construct: Soluble analyte in the SPR experiments; also called hIL-2; recombinant human IL-2
Excerpt: (§2) The SPR analysis was done on Biacore […] (GE healthcare, USA) on CM5 chips (cat:br10005-30, GE healthcare, USA). The chip was crosslinked with primary capture Ab against human IgG (Cat: br-1008-39, GE healthcare, USA) or primary capture antibody against mouse IgG (Cat: BR-1008-38, GE healthcare, USA) to a target of 8000RU. After cross-linking of the primary Ab, the mouse and human tested antibodies were immobilized on the primary Ab to a target of approximately additional 500RU. […] At the end of each cycle the analyte and tested antibody were stripped from the chip using 3M MgCl₂ and new tested Ab was loaded on the chip as described above. When indicated, instead of stripping the antibodies, kinetics was determined by injecting series of analyte concentrations in one cycle by the Single-cycle kinetics method. Binding kinetics were determined by the 1:1 Binding model using the Biacore T200 evaluation software.

[11] = biological target: T2, Mouse IL-2; assay: SPR Biacore T200, antibody captured, mIL-2 analyte
Excerpt: as §2

[12] = biological target: T2, Mouse IL-2; assay: SPR Biacore, antibody captured, mIL-2 analyte
Excerpt: as §2

[13] = biological target: T10, Human IL-2; assay: SPR, multi-cycle, antibody captured, hIL-2 analyte
Excerpt: as §2

[14] = biological target: T10, Human IL-2; assay: SPR, single-cycle, antibody captured, hIL-2 analyte
Excerpt: as §2

[15] = biological target: T10, Human IL-2; assay: SPR, antibody captured on anti-human IgG CM5 chip, human IL-2 as analyte, single-cycle, 1:1 binding model
Excerpt: as §2

[16] = biological target: T11, cynomolgus monkey IL-2 (cynomolgus monkey, UniProt Q29615 21-154); assay: SPR, multi-cycle, antibody captured, cynomolgus IL-2 analyte
T11 construct: also called cIL-2
Excerpt: as §2

[17] = biological target: T10, Human IL-2; assay: SPR, antibody captured on anti-human IgG CM5 chip, human IL-2 as analyte, multi-cycle, 1:1 binding model
Excerpt: as §2

T10 sequence (P60568 21-153 limits assumed): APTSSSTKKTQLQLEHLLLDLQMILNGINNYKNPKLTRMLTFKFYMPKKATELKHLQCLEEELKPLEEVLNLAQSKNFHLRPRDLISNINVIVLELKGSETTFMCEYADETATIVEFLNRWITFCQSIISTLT
T11 sequence (Q29615 21-154 limits assumed): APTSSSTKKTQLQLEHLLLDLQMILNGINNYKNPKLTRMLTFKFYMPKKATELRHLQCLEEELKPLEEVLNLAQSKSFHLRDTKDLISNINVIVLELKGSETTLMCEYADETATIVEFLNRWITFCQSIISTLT
T6 sequence (P60568 21-153 limits assumed, one chain of several): as the sequence (P60568 21-153 limits assumed) above
T3 sequence (P60568 21-153 limits assumed, one chain of several): as the sequence (P60568 21-153 limits assumed) above
T5 sequence (P60568 21-153 limits assumed, one chain of several): as the sequence (P60568 21-153 limits assumed) above
T8 sequence (P60568 21-153 limits assumed, one chain of several): as the sequence (P60568 21-153 limits assumed) above
T4 sequence (P60568 21-153 limits assumed, one chain of several): as the sequence (P60568 21-153 limits assumed) above
T7 sequence (P60568 21-153 limits assumed, one chain of several): as the sequence (P60568 21-153 limits assumed) above

Binder: B1
binding result [1]: no binding (tested: 1000 nM)
binding result [2]: no binding (tested: 1000 nM)
binding result [3]: no binding (tested: 1000 nM)
binding result [4]: no binding (tested: 1 uM)
binding result [5]: no binding (tested: 1000 nM)
binding result [6]: no binding (tested: 1 uM)
binding result [7]: no binding (tested: 1000 nM)
binding result [8]: no binding (tested: 1000 nM)

Binder: B2
binding result [9]: no binding (tested: 1 uM)

Binder: B3
Kd [10]: 0.0818 nM
koff [10]: 0.00107 s⁻¹
kon [10]: 1.31e+07 M⁻¹ s⁻¹
Kd [11]: 2460 nM
koff [11]: 0.0979 s⁻¹
kon [11]: 39800 M⁻¹ s⁻¹

Binder: B4
Kd [12]: 0.13 nM
koff [12]: 6.3e-05 s⁻¹
kon [12]: 480000 M⁻¹ s⁻¹

Binder: B5
Kd [13]: 0.0515 nM
koff [13]: 0.000785 s⁻¹
kon [13]: 1.52e+07 M⁻¹ s⁻¹

Binder: B6
Kd [14]: 0.0643 nM
koff [14]: 0.00254 s⁻¹
kon [14]: 3.96e+07 M⁻¹ s⁻¹
kon [15]: 3.39e+07 M⁻¹ s⁻¹

Binder: B7
Kd [13]: 0.011 nM
koff [13]: 0.000372 s⁻¹
kon [13]: 3.37e+07 M⁻¹ s⁻¹
Kd [16]: 0.014 nM
koff [16]: 0.000398 s⁻¹
kon [16]: 2.83e+07 M⁻¹ s⁻¹

Binder: B8
Kd [14]: 0.0127 nM
koff [14]: 0.0007 s⁻¹
kon [14]: 5.5e+07 M⁻¹ s⁻¹

Binder: B9
koff [17]: 0.0002 s⁻¹
Kd [13]: 0.0202 nM
koff [13]: 0.0002 s⁻¹
kon [13]: 1.41e+07 M⁻¹ s⁻¹

Binder: B10
Kd [17]: 0.0478 nM
koff [17]: 0.000266 s⁻¹
kon [17]: 3.39e+07 M⁻¹ s⁻¹
Kd [13]: 0.0482 nM
koff [13]: 0.000222 s⁻¹

— patent publication US20240287169A1 (AULOS BIOSCIENCE, published 2024)
